Experimental data published in the supplement of paper PMC7877785.
± gives the uncertainty stated by the source.

Test: self-splicing fitness, log relative to wild type (ln ratio); higher = more splicing; Tetrahymena group I intron in knt gene, E. coli kanamycin selection, DiMSum; sequences stand for … in CUCUCU…GGAGGGAAAAGUUAUCAGGCAUGCACCUGGUAGCUAGUCUUUAAACCAAUAGAUUGCAUCGGUUUAAAAGGCAAGACCGUCAAAUUGCGGGAAAGGGGUCAACAGCCGUUCAGUACCAAGUCUCAGGGGAAACUUUGAGAUGGCCUUGCAAAGGGUAUGGUAAUAAGCUGACGGACAUGGUCCUAACCACGCAGCCAAGUCCUAAGUCAACAGAUCUUCUGUUGAUAUGGAUGCAGUUCACAGACUAAAUGUCGGUCGGGGAAGAUGUAUUCUUCUCAUAAGAUAUAGUCGGACCUCUCCUUAAUGGGAGCUAGCGGAUGAAGUGAUGCAACACUGGAGCCGCUGGGAACUAAUUUGUAUGCGAAAGUAUAUUGAUUAGUUUUGGAGUACUCGUGGUCG
Procedure, shortened: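 The eight P1ex-region nucleotides of an intron in the knt kanamycin-resistance gene on pET-22b(+) were all randomised and the library put into E. coli BL21(DE3). Six replicate transformations were grown overnight at 37°C or 30°C on LB agar with or without 25 μg/mL kanamycin, together with 100 μg/mL carbenicillin, 50 μM IPTG and 0.2% rhamnose. Colonies were pooled and amplicon-sequenced on an Illumina HiSeq 2500. Fitness from DiMSum is the error-weighted combination of wild-type-normalised replicate fold changes, kanamycin over none.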

| Sequence | self-splicing fitness (ln) (30 °C) | self-splicing fitness (ln) (37 °C) |
| --- | --- | --- |
| GGACAGCAAUAUUACGGUAC | -0.625 ± 0.11 | -0.234 ± 0.13 |
| GGACAGCAAUAUUACGUACG | -0.876 ± 0.12 | 0.399 ± 0.18 |
| GGACAGCAAUAUUACGUCCU | -4.07 ± 0.22 | -2.66 ± 0.33 |
| GGACAGCAAUAUUACGUGUA | -0.376 ± 0.078 | -0.304 ± 0.085 |
| GGACAGCAAUAUUACGUUAG | -1.24 ± 0.066 | -0.49 ± 0.085 |
| GGACAGCAAUAUUACGUUGU | -3.63 ± 0.14 | -3.51 ± 0.18 |
| GGAGAGCAAUAUUACGAAUG | -3.28 ± 0.28 | -2.71 ± 0.41 |
| GGAGAGCAAUAUUACGACCA | -2.28 ± 0.21 | -1.92 ± 0.27 |
| GGAGAGCAAUAUUACGAUAC | -2.61 ± 0.35 | -2.47 ± 0.31 |
| GGAGAGCAAUAUUACGAUAU | -3.43 ± 0.24 | -0.657 ± 0.16 |
| GGAGAGCAAUAUUACGCACA |  | -0.604 ± 0.3 |
| GGAGAGCAAUAUUACGCCUU | -2.58 ± 0.35 |  |
| GGAGAGCAAUAUUACGCGCG | -2.27 ± 0.11 | -1.26 ± 0.13 |
| GGAGAGCAAUAUUACGGACU | -1.52 ± 0.13 | -0.526 ± 0.17 |
| GGAGAGCAAUAUUACGGCGA | -2.22 ± 0.27 | -1.69 ± 0.28 |
| GGAGAGCAAUAUUACGGUUC | -1.36 ± 0.38 |  |
| GGAGAGCAAUAUUACGUGUC | -3.21 ± 0.26 | -1.46 ± 0.24 |
| GGAGAGCAAUAUUACGUUUC | -3.17 ± 0.34 |  |
| GGAUAGCAAUAUUACGAGGG | -3.29 ± 0.28 | -2.33 ± 0.27 |
| GGAUAGCAAUAUUACGAUCU | -1.25 ± 0.4 | -2.24 ± 0.43 |
| GGAUAGCAAUAUUACGAUUA | -0.674 ± 0.17 | 0.409 ± 0.15 |
| GGAUAGCAAUAUUACGCAAA | -2.14 ± 0.29 |  |
| GGAUAGCAAUAUUACGCACU | -2.36 ± 0.15 | -1.05 ± 0.15 |
| GGAUAGCAAUAUUACGCAGU | -2.7 ± 0.18 | -1 ± 0.12 |
| GGAUAGCAAUAUUACGCCAA | -2.37 ± 0.41 | -1.01 ± 0.25 |

| Sequence | self-splicing fitness (ln) (30 °C) | self-splicing fitness (ln) (37 °C) |
| --- | --- | --- |
| GGAUAGCAAUAUUACGCUUU | -2.1 ± 0.16 | -2.16 ± 0.21 |
| GGAUAGCAAUAUUACGGACU | -0.129 ± 0.14 | -0.134 ± 0.19 |
| GGAUAGCAAUAUUACGGCCU | -2.24 ± 0.29 | -0.0501 ± 0.17 |
| GGAUAGCAAUAUUACGGCGA | -0.101 ± 0.15 | -0.302 ± 0.12 |
| GGAUAGCAAUAUUACGGCGG | -1.95 ± 0.14 | -0.444 ± 0.13 |
| GGAUAGCAAUAUUACGGGGA | -3.41 ± 0.29 | -3.52 ± 0.42 |
| GGAUAGCAAUAUUACGGGGG | -2.14 ± 0.19 | -1.8 ± 0.35 |
| GGAUAGCAAUAUUACGGUAA | -2 ± 0.14 | -1.45 ± 0.12 |
| GGAUAGCAAUAUUACGGUCU | -3.86 ± 0.4 | -1.99 ± 0.18 |
| GGAUAGCAAUAUUACGUAAA | -2.12 ± 0.17 | -1.42 ± 0.2 |
| GGAUAGCAAUAUUACGUUUG | -2.95 ± 0.2 | -1.87 ± 0.21 |
| GGCAAGCAAUAUUACGAAUC | -0.875 ± 0.17 | -0.687 ± 0.26 |
| GGCAAGCAAUAUUACGACCG | -0.371 ± 0.11 | -0.482 ± 0.15 |
| GGCAAGCAAUAUUACGACUC | -0.319 ± 0.15 | 0.265 ± 0.17 |
| GGCAAGCAAUAUUACGAGGC | -0.0179 ± 0.3 |  |
| GGCAAGCAAUAUUACGAGGU | -2.6 ± 0.24 | -1.27 ± 0.21 |
| GGCAAGCAAUAUUACGAGUC | -2.64 ± 0.12 | -1.78 ± 0.13 |
| GGCAAGCAAUAUUACGAUUA | -0.726 ± 0.1 | -0.234 ± 0.093 |
| GGCAAGCAAUAUUACGCAAU | -1.03 ± 0.097 | 0.802 ± 0.11 |
| GGCAAGCAAUAUUACGCAUC | -0.644 ± 0.078 | -0.532 ± 0.1 |
| GGCAAGCAAUAUUACGCAUG | -2.17 ± 0.12 | -1.36 ± 0.16 |
| GGCAAGCAAUAUUACGCCGG | -2.81 ± 0.3 | -3.19 ± 0.22 |
| GGCAAGCAAUAUUACGCUCU | -2.51 ± 0.17 | -1.96 ± 0.18 |
| GGCAAGCAAUAUUACGCUGA | -1.13 ± 0.12 | -1.27 ± 0.14 |
| GGCAAGCAAUAUUACGGAAG | -2.84 ± 0.1 | -1.37 ± 0.1 |

| Sequence | self-splicing fitness (ln) (30 °C) | self-splicing fitness (ln) (37 °C) |
| --- | --- | --- |
| GGCAAGCAAUAUUACGGACA | -0.577 ± 0.085 | -0.00922 ± 0.11 |
| GGCAAGCAAUAUUACGGCCA | -1.24 ± 0.17 | -0.0702 ± 0.17 |
| GGCAAGCAAUAUUACGGCGA | -0.134 ± 0.082 | 0.235 ± 0.11 |
| GGCAAGCAAUAUUACGGGAU | -2.31 ± 0.086 | -0.713 ± 0.089 |
| GGCAAGCAAUAUUACGGGUA | -1.57 ± 0.1 | -0.544 ± 0.11 |
| GGCAAGCAAUAUUACGGGUC | -3.2 ± 0.17 | -0.979 ± 0.12 |
| GGCAAGCAAUAUUACGUUGC | -3.67 ± 0.37 | -2.42 ± 0.39 |
| GGCAAGCAAUAUUACGUUUG | -3 ± 0.13 | -2.83 ± 0.22 |
| GGCCAGCAAUAUUACGAAAC | -0.973 ± 0.079 | 0.00581 ± 0.1 |
| GGCCAGCAAUAUUACGACCC |  | -1.48 ± 0.44 |
| GGCCAGCAAUAUUACGACGU | -0.821 ± 0.083 | 0.2 ± 0.12 |
| GGCCAGCAAUAUUACGAUAG | -3.68 ± 0.46 | -2.95 ± 0.23 |
| GGCCAGCAAUAUUACGAUUC | -0.666 ± 0.067 | -0.139 ± 0.099 |
| GGCCAGCAAUAUUACGCACC | -2.17 ± 0.12 | -0.636 ± 0.14 |
| GGCCAGCAAUAUUACGCCCU | -1.37 ± 0.16 | -0.726 ± 0.15 |
| GGCCAGCAAUAUUACGCCGA | -1.54 ± 0.16 | -1.18 ± 0.14 |
| GGCCAGCAAUAUUACGCCGC | -4.33 ± 0.39 |  |
| GGCCAGCAAUAUUACGCGAA | -0.824 ± 0.12 | -1.41 ± 0.14 |
| GGCCAGCAAUAUUACGCGAU | -3.5 ± 0.14 | -2.17 ± 0.14 |
| GGCCAGCAAUAUUACGCGGA | -1.17 ± 0.12 | -0.716 ± 0.1 |
| GGCCAGCAAUAUUACGCUAC | -4.15 ± 0.3 | -2.57 ± 0.23 |
| GGCCAGCAAUAUUACGCUCC | -3.17 ± 0.24 | -1.38 ± 0.24 |
| GGCCAGCAAUAUUACGGGGG | -3.54 ± 0.18 | -1.85 ± 0.17 |
| GGCCAGCAAUAUUACGGGUG | -1.02 ± 0.049 | -0.536 ± 0.065 |
| GGCCAGCAAUAUUACGGUUC | -3.72 ± 0.17 | -0.463 ± 0.12 |

| Sequence | self-splicing fitness (ln) (30 °C) | self-splicing fitness (ln) (37 °C) |
| --- | --- | --- |
| GGCCAGCAAUAUUACGUACG | -1.8 ± 0.11 | -1.1 ± 0.12 |
| GGCCAGCAAUAUUACGUACU | -0.417 ± 0.08 | -0.256 ± 0.093 |
| GGCCAGCAAUAUUACGUAUC | -0.633 ± 0.069 | -0.494 ± 0.081 |
| GGCCAGCAAUAUUACGUGCC | -3 ± 0.15 | -0.478 ± 0.24 |
| GGCGAGCAAUAUUACGACGA | -3.06 ± 0.32 | -1.32 ± 0.26 |
| GGCGAGCAAUAUUACGACUA | -0.848 ± 0.12 | -0.00409 ± 0.11 |
| GGCGAGCAAUAUUACGAGUG | -1.67 ± 0.19 | -1.47 ± 0.3 |
| GGCGAGCAAUAUUACGAGUU | -2.42 ± 0.14 | -1.19 ± 0.16 |
| GGCGAGCAAUAUUACGAUGC | -1.04 ± 0.16 | -1.43 ± 0.26 |
| GGCGAGCAAUAUUACGCCUU | -3.21 ± 0.3 | -1.81 ± 0.26 |
| GGCGAGCAAUAUUACGCGAG | -2.7 ± 0.24 | -2.24 ± 0.32 |
| GGCGAGCAAUAUUACGCGCG |  | -0.647 ± 0.18 |
| GGCGAGCAAUAUUACGCGGU | -3.13 ± 0.21 | -1.69 ± 0.22 |
| GGCGAGCAAUAUUACGCGUC |  | -2.65 ± 0.39 |
| GGCGAGCAAUAUUACGGCAG |  | -1.94 ± 0.36 |
| GGCGAGCAAUAUUACGGUUG | -2.57 ± 0.14 | -0.892 ± 0.16 |
| GGCGAGCAAUAUUACGUAAA | -2.28 ± 0.16 | -1.06 ± 0.15 |
| GGCGAGCAAUAUUACGUAAU | -1.4 ± 0.13 | -0.339 ± 0.14 |
| GGCGAGCAAUAUUACGUACU | -0.65 ± 0.13 | -0.094 ± 0.15 |
| GGCGAGCAAUAUUACGUCGU | -3.86 ± 0.22 | -2.3 ± 0.32 |
| GGCGAGCAAUAUUACGUCUA | -1.86 ± 0.19 | -0.451 ± 0.15 |
| GGCGAGCAAUAUUACGUCUG | -4.26 ± 0.29 | -2.53 ± 0.16 |
| GGCGAGCAAUAUUACGUGAU | -2.26 ± 0.15 | -1.08 ± 0.14 |
